Test results reported in article PMC6078952, “Insights into the structure and dynamics of lysyl oxidase propeptide, a flexible protein with numerous partners” (Scientific Reports, 2018).

T1: Collagen VI (vWF1 domain) (UniProt P12109 20-256)
T1 construct: collagen alpha-1(VI) chain, UniProtKB P12109, residues 20-256 (vWF1 domain); also called Collagen VI alpha 1 chain (vWF1 domain); source: Expressed in the laboratory (PMID 24117177)
T1 sequence (looked up): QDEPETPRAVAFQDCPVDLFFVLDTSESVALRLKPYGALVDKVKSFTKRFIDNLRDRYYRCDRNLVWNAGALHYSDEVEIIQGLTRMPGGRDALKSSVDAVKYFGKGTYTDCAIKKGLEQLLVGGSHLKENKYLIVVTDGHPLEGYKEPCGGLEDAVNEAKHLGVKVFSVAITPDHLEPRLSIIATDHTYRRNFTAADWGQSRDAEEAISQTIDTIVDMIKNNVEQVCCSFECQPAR

T2: Dermatopontin (UniProt Q07507 19-201)
T2 construct: dermatopontin, UniProtKB Q07507; source: bought: Abcam, ab158310
T2 sequence (looked up): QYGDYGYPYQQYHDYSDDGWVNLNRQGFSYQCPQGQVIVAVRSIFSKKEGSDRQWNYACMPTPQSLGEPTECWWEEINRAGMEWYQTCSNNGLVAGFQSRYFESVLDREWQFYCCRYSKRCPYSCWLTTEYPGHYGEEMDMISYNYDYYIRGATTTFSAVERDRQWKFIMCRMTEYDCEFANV

T3: Fibromodulin (UniProt P13605 19-376)
T3 construct: proteoglycan; source: bought: Sigma-Aldrich, F6921
T3 sequence (looked up): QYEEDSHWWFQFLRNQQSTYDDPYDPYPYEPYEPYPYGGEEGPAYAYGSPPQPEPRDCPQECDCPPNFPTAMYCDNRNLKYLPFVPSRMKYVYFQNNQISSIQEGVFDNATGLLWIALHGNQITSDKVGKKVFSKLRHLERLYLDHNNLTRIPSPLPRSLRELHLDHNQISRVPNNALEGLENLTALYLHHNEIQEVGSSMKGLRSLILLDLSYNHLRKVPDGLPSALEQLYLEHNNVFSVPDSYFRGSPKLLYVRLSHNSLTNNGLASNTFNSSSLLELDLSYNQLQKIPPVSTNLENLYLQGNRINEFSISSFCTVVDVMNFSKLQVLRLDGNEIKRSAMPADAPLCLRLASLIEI

T4: Matrix metalloproteinase-2 (MMP-2) (UniProt P08253 30-660)
T4 construct: matrix metalloproteinase-2, UniProtKB P08253, residues 30-660; source: bought: R&D Systems, 902-MPN
T4 sequence (looked up): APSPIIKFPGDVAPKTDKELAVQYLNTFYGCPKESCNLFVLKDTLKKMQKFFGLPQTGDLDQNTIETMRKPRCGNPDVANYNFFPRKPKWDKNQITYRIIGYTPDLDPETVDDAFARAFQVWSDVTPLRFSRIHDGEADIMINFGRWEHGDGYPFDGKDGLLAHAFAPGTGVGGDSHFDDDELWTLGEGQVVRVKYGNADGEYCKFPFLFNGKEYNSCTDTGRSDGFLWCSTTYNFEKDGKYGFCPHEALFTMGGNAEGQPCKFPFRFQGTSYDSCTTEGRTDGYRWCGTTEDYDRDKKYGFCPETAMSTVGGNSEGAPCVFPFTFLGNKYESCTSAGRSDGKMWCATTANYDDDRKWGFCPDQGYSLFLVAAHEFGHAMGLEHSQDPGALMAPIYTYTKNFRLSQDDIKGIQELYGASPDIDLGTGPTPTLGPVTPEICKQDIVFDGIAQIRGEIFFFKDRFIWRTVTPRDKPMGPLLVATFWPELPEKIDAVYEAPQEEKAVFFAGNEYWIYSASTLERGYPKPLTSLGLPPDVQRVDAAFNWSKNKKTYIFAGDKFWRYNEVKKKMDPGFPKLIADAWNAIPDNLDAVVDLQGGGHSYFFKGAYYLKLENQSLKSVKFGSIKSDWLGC

T5: Lysyl oxidase homolog 2 (LOXL2) (UniProt Q9Y4K0 26-774)
T5 construct: lysyl oxidase homolog 2, UniProtKB Q9Y4K0; also called lysyl oxidase-like 2; source: bought: R&D Systems, 2639-AO
T5 sequence (looked up): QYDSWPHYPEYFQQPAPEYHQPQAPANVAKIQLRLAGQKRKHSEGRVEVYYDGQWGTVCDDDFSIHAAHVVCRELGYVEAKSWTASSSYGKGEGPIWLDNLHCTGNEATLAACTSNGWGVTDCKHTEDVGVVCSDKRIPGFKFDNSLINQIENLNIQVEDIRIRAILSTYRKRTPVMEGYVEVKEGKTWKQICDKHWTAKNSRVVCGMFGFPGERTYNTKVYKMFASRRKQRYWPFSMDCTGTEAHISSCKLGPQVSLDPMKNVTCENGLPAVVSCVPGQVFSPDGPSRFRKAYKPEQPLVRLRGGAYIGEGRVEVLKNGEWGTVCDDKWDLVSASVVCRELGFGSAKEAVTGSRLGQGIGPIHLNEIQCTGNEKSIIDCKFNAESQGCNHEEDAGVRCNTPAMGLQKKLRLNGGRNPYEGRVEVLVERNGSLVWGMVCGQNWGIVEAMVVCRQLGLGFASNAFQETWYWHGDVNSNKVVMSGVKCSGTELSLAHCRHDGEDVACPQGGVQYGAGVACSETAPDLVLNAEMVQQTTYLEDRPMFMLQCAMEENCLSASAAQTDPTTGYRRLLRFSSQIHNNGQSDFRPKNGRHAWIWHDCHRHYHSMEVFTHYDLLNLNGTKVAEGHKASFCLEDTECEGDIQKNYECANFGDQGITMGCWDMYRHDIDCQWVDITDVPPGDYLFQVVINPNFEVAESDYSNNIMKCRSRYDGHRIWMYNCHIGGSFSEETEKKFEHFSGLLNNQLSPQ

T6: Transglutaminase-2 (TG-2), mutant Cys277Ser (UniProt P21980 1-687, Cys277Ser)
T6 construct: transglutaminase-2, UniProtKB P21980; source: bought: Zedira, T018
T6 sequence (looked up): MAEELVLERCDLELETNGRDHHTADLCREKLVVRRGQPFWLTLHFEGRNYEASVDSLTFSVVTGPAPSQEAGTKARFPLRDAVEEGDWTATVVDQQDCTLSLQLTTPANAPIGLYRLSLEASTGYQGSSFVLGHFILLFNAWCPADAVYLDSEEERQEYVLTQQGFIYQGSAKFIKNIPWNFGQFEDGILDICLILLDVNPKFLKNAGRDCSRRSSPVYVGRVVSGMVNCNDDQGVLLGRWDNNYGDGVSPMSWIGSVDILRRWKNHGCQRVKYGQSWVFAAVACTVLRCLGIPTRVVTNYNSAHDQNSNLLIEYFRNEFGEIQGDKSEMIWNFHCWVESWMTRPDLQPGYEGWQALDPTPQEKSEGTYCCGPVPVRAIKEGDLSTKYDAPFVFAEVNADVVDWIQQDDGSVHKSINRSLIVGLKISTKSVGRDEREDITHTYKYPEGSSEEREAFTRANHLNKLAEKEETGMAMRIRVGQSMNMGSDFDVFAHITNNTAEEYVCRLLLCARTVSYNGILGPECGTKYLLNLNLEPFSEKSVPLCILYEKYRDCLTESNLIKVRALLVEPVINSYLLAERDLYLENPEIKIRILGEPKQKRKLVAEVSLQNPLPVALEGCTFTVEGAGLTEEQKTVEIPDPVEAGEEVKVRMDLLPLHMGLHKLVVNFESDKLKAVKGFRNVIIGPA

B1: Epidermal growth factor (EGF) (ligand, UniProt P01133 971-1023, looked up)
chain: NSDSECPLSHDGYCLHDGVCMYIEALDKYACNCVVGYIGERCQYRDLKWWELR
notes: epidermal growth factor, feature PRO_0000007541 of pro-epidermal growth factor, UniProtKB P01133; source: bought: Sigma-Aldrich, E9644
B2: Lysyl oxidase propeptide (LOX-PP) (Pro24Leu) (domain or fragment, human, UniProt P28300 22-168, looked up)
chain: APLAAGQQQPPREPPAAPGAWRQQIQWENNGQVFSLLSLGSQYQPQRRRDPGAAVPGAANASAQQPRTPILLIRDNRTAAARTRTAGSSGVTAGRPRPTARHWFQAGYSTSRAREAGASRAENQTAPGEVPALSNLRPPSRVDGMVG
modifications: N-linked glycans (removed by PNGase F)
notes: propeptide of human lysyl oxidase, UniProtKB P28300, residues 22-168; expressed from the pCEP-Pu-BM40 vector; also called propeptide of human lysyl oxidase; source: HEK293-EBNA, purified (anti-FLAG resin)
B3: Fibronectin fragment III1-C (anastellin) (domain or fragment)
chain: not shown
notes: anastellin, fragment III1-C of fibronectin, UniProtKB P02751, residues 631-702; source: bought: Sigma-Aldrich, F3542

Columns and labels:
Assay in all cases: SPR; SPR imaging (SPRi, Biacore Flexchip): partners spotted in triplicate on a bare gold chip at 0.06 to 1 mg/ml; purified LOX-PP injected at 2 µM and recirculated for 20 min; PBS with 0.05% Tween 20, 25 °C
Conditions in all cases: both partners purified
[1] = target: B2
[2] = target: T1, Collagen VI (vWF1 domain)
Dermatopontin = target: T2, Dermatopontin
Fibromodulin = target: T3, Fibromodulin
[3] = target: T4, Matrix metalloproteinase-2 (MMP-2)
[4] = target: T5, Lysyl oxidase homolog 2 (LOXL2)
[5] = target: T6, Transglutaminase-2 (TG-2), mutant …

| Binder | binding result [1] | binding result [2] | binding result (Dermatopontin) | binding result (Fibromodulin) | binding result [3] | binding result [4] | binding result [5] |
| --- | --- | --- | --- | --- | --- | --- | --- |
| B1 | binds |  |  |  |  |  |  |
| B2 |  | binds | binds | binds | binds | binds | binds |
| B3 | binds |  |  |  |  |  |  |
